Source: publication PMC11461925 (2024)

Target: Wu-1-RBD-I53-50A (SARS-CoV-2, UniProt P0DTC2 328-531)
Assay: BLI

B1: LY-CoV555 Fab (Fab, V domains shown)
VH: QVQLVQSGAEVKKPGSSVKVSCKASGGTFSNYAISWVRQAPGQGLEWMGRIIPILGIANYAQKFQGRVTITADKSTSTAYMELSSLRSEDTAVYYCARGYYEARHYYYYYAMDVWGQGTAVTVSS
VL: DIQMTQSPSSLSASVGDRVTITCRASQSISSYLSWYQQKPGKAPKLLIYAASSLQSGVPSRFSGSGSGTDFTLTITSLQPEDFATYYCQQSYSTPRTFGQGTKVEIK
With B1 the Kd was 26.9 nM.
